Results from the Immune Epitope Database (IEDB).

Key:
[1] = target: HLA-A*32:07; experiment: IEDB peptide-MHC binding, purified MHC/competitive/fluorescence; filed as Kd, often an IC50 or EC50 that approximates it; ≥ and ≤ were set here for values at or beyond the usual limits of such assays; conditions: source organism: Crocodilepox virus
[2] = target: HLA-A*29:02; experiment: as above; conditions: source organism: Crocodilepox virus
[3] = target: HLA-B*45:06; experiment: as above; conditions: source organism: Crocodilepox virus
[4] = target: HLA-B*15:42; experiment: as above; conditions: source organism: Crocodilepox virus
[5] = target: HLA-B*83:01; experiment: as above; conditions: source organism: Crocodilepox virus
[6] = target: HLA-A*26:01; experiment: as above; conditions: source organism: Vaccinia virus WR
[7] = target: HLA-B*15:01; experiment: as above; conditions: source organism: Vaccinia virus WR
[8] = target: HLA-A*26:02; experiment: as above
[9] = target: HLA-B*15:17; experiment: as above; conditions: source organism: Vaccinia virus WR
[10] = target: HLA-A*26:03; experiment: as above; conditions: source organism: Vaccinia virus WR
[11] = target: HLA-B*35:01; experiment: as above; conditions: source organism: Vaccinia virus WR
[12] = target: HLA-A*03:01; experiment: IEDB peptide-MHC binding, purified MHC/competitive/fluorescence; ≥ and ≤ were set here for values at or beyond the usual limits of such assays; conditions: source organism: Vaccinia virus WR
[13] = target: HLA-B*15:01; experiment: as above; conditions: source organism: Vaccinia virus WR
[14] = target: HLA-A*02:01; experiment: as above; conditions: source organism: Vaccinia virus WR
[15] = target: HLA-A*24:02; experiment: as above; conditions: source organism: Vaccinia virus WR
[16] = target: HLA-A*01:01; experiment: as above; conditions: source organism: Vaccinia virus WR
[17] = target: HLA-A*11:01; experiment: as above; conditions: source organism: Vaccinia virus WR
[18] = target: HLA-B*27:05; experiment: IEDB peptide-MHC binding, purified MHC/direct/fluorescence; filed as Kd, often an IC50 or EC50 that approximates it; ≥ and ≤ were set here for values at or beyond the usual limits of such assays
[19] = target: HLA-A*03:01; experiment: as above
[20] = target: HLA-B*40:01; experiment: as above; conditions: source organism: Camelpox virus M-96
[21] = target: HLA-A*80:01; experiment: as above; conditions: source organism: Camelpox virus M-96
[22] = target: HLA-B*57:01; experiment: as above
[23] = target: HLA-A*69:01; experiment: as above
[24] = target: HLA-A*02:01; experiment: as above
[25] = target: HLA-B*58:01; experiment: as above
[26] = target: HLA-B*08:01; experiment: as above
[27] = target: HLA-A*31:01; experiment: as above; conditions: source organism: Camelpox virus M-96
[28] = target: HLA-A*01:01; experiment: as above
[29] = target: HLA-A*68:02; experiment: as above; conditions: source organism: Camelpox virus M-96
[30] = target: HLA-B*46:01; experiment: as above
[31] = target: HLA-B*48:01; experiment: as above
[32] = target: HLA-A*11:01; experiment: as above; conditions: source organism: Camelpox virus M-96
[33] = target: HLA-B*07:02; experiment: as above
[34] = target: HLA-B*08:03; experiment: as above
[35] = target: HLA-B*39:01; experiment: IEDB peptide-MHC binding, purified MHC/competitive/fluorescence; filed as Kd, often an IC50 or EC50 that approximates it; ≥ and ≤ were set here for values at or beyond the usual limits of such assays; conditions: source organism: Bacillus anthracis str. A0488
[36] = target: HLA-A*68:02; experiment: as above; conditions: source organism: Bacillus anthracis str. A0488
[37] = target: HLA-B*15:09; experiment: as above; conditions: source organism: Bacillus anthracis str. A0488
[38] = target: HLA-A*11:01; experiment: as above; conditions: source organism: Bacillus anthracis str. A0488
[39] = target: HLA-A*02:11; experiment: IEDB peptide-MHC binding, purified MHC/direct/fluorescence; filed as Kd, often an IC50 or EC50 that approximates it; ≥ and ≤ were set here for values at or beyond the usual limits of such assays; conditions: source organism: Bacillus cereus 03BB108
[40] = target: HLA-B*15:01; experiment: as above; conditions: source organism: Bacillus anthracis
[41] = target: HLA-A*02:19; experiment: as above; conditions: source organism: Bacillus cereus 03BB108
[42] = target: HLA-B*15:02; experiment: as above; conditions: source organism: Bacillus cereus 03BB108
[43] = target: HLA-A*02:12; experiment: as above; conditions: source organism: Bacillus cereus 03BB108
[44] = target: HLA-B*15:17; experiment: as above; conditions: source organism: Bacillus anthracis
[45] = target: HLA-A*26:03; experiment: as above; conditions: source organism: Bacillus cereus 03BB108
[46] = target: HLA-B*35:01; experiment: as above; conditions: source organism: Bacillus cereus 03BB108
[47] = target: HLA-B*08:02; experiment: as above; conditions: source organism: Bacillus cereus 03BB108
[48] = source organism: Camelpox virus M-96
[49] = source organism: Bacillus anthracis
[50] = source organism: Bacillus cereus 03BB108

RVRSMANVY
Kd [1]: 0.0157 µM | Kd [2]: 0.0151 µM | Kd [3]: ≥ 5 µM | Kd [4]: ≥ 5 µM | Kd [5]: ≥ 5 µM

SLFTEQAFY
Kd [6]: ≥ 5 µM | Kd [7]: 0.959 µM | Kd ([8]; source organism: Vaccinia virus WR): ≥ 20 µM | Kd [9]: ≥ 20 µM | Kd [10]: ≥ 20 µM | Kd [11]: 1.15 µM | IC50 [12]: 7.04 µM | IC50 [13]: 3.93 µM | IC50 [14]: 15 µM | IC50 [15]: 31.2 µM | IC50 [16]: 32 µM | IC50 [17]: 7.85 µM | Kd [18, 48]: ≥ 20 µM | Kd [19, 48]: 4.41 µM | Kd [20]: ≥ 20 µM | Kd [21]: 0.0086 µM | Kd [22, 48]: ≥ 20 µM | Kd [23, 48]: ≥ 20 µM | Kd [24, 48]: ≥ 20 µM | Kd ([25]; source organism: Variola virus): ≥ 20 µM | Kd ([26]; source organism: Variola virus): ≥ 20 µM | Kd [27]: ≥ 20 µM | Kd [28, 48]: ≥ 20 µM | Kd [29]: ≥ 20 µM | Kd [30, 48]: ≥ 20 µM | Kd [31, 48]: ≥ 20 µM | Kd [32]: 1.11 µM | Kd [33, 48]: ≥ 20 µM | Kd ([34]; source organism: Variola virus): ≥ 20 µM

KVQEWYLSY
Kd [35]: 0.0869 µM | Kd ([8]; source organism: Bacillus anthracis str. A0488): 1.21 µM | Kd [36]: 3.4 µM | Kd [37]: ≥ 20 µM | Kd [38]: 0.0422 µM | Kd [18, 49]: 0.0517 µM | Kd [19, 49]: 0.132 µM | Kd [39]: 0.308 µM | Kd [40]: 0.443 µM | Kd [41]: ≥ 20 µM | Kd [22, 49]: ≥ 20 µM | Kd [42]: 1.48 µM | Kd [23, 49]: 15 µM | Kd [24, 49]: 14.3 µM | Kd [25, 49]: 3.62 µM | Kd [26, 50]: ≥ 20 µM | Kd [28, 49]: ≥ 5 µM | Kd [43]: 1.63 µM | Kd [30, 49]: ≥ 20 µM | Kd [31, 49]: ≥ 20 µM | Kd [44]: 0.121 µM | Kd [45]: ≥ 20 µM | Kd [46]: 2.06 µM | Kd [33, 49]: 5.54 µM | Kd [34, 50]: 0.324 µM | Kd [47]: ≥ 20 µM
